Laboratory results published in patent US20260001928A1 (CORTERIA PHARMACEUTICALS, priority 2022, published 2026).
*1 amine or outer side, *2 acyl side, *3 side chain or, on linkers, in order; H or OH if unused. Side-chain parts run from the residue outwards. [ ]: non-standard residue; d: D form. The star is where a group is joined. C18 diacid = O=C(O)CCCCCCCCCCCCCCCCC(=O)*; C16 diacid = O=C(O)CCCCCCCCCCCCCCC(=O)*; γGlu = O=C(O)[C@H](CCC(=O)[*:2])N[*:1]; Pentanoyl = CCCCC(=O)*; AEEA = NCCOCCOCC(=O)O; Aib = CC(C)(N)C(=O)O; Propionyl = CCC(=O)*; Butyryl = CCCC(=O)*

What was measured:
[1] = target: T1, CRF1R receptor (UniProt P34998 24-415, limits assumed); assay: cell-based or functional assay
T1 sequence (looked up): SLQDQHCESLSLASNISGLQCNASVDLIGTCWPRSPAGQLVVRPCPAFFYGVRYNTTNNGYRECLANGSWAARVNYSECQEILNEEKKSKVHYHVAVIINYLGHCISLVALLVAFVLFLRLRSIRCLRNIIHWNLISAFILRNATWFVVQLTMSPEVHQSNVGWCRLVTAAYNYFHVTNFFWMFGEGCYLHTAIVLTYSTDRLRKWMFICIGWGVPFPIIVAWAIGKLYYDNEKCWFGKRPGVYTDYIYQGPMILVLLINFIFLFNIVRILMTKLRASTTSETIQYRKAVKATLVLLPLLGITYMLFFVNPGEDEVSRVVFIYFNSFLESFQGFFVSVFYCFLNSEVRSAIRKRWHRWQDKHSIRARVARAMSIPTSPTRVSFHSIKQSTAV

[2] = target: human corticotropin-releasing factor 2a (CRF2a receptor) (human), Q13324; assay: cell-based or functional assay
Sequence of human corticotropin-releasing factor 2a (CRF2a receptor) (human), Q13324 (Q13324 20-411): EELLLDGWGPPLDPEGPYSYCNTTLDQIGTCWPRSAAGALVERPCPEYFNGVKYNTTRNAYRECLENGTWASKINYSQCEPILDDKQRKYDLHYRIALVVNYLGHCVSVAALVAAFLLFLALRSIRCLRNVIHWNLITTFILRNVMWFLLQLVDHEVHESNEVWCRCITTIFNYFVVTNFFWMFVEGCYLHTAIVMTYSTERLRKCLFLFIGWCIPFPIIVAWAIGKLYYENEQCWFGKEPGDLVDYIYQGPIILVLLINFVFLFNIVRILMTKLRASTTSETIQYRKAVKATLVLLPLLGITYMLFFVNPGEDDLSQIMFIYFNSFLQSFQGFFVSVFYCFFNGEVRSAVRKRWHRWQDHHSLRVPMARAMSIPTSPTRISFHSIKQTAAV

Binder | Emax (% I) [1] | EC50 [nM] (cAMP) [2]
Pentanoyl-VLSLD[dV]PIKLK([γGlu-C16 diacid])KILLEQEKQKKQREQAETNKQILAQV-NH2 (SMILES CCCCC(=O)N[C@H](C(=O)N[C@@H](CC(C)C)C(=O)N[C@@H](CO)C(=O)N[C@@H](CC(C)C)C(=O)N[C@@H](CC(=O)O)C(=O)N[C@@H](C(=O)N1CCC[C@H]1C(=O)N[C@H](C(=O)N[C@@H](CCCCN)C(=O)N[C@@H](CC(C)C)C(=O)N[C@@H](CCCCNC(=O)CC[C@H](NC(=O)CCCCCCCCCCCCCCC(=O)O)C(=O)O)C(=O)N[C@@H](CCCCN)C(=O)N[C@H](C(=O)N[C@@H](CC(C)C)C(=O)N[C@@H](CC(C)C)C(=O)N[C@@H](CCC(=O)O)C(=O)N[C@@H](CCC(N)=O)C(=O)N[C@@H](CCC(=O)O)C(=O)N[C@@H](CCCCN)C(=O)N[C@@H](CCC(N)=O)C(=O)N[C@@H](CCCCN)C(=O)N[C@@H](CCCCN)C(=O)N[C@@H](CCC(N)=O)C(=O)N[C@@H](CCCNC(=N)N)C(=O)N[C@@H](CCC(=O)O)C(=O)N[C@@H](CCC(N)=O)C(=O)N[C@@H](C)C(=O)N[C@@H](CCC(=O)O)C(=O)N[C@H](C(=O)N[C@@H](CC(N)=O)C(=O)N[C@@H](CCCCN)C(=O)N[C@@H](CCC(N)=O)C(=O)N[C@H](C(=O)N[C@@H](CC(C)C)C(=O)N[C@@H](C)C(=O)N[C@@H](CCC(N)=O)C(=O)N[C@H](C(N)=O)C(C)C)[C@@H](C)CC)[C@@H](C)O)[C@@H](C)CC)[C@@H](C)CC)C(C)C)C(C)C) [SEQ ID NO 37] | 22% | 0.13 nM
Ac-IVLSLD[dV]PIKLK([γGlu-C16 diacid])Q[Aib]LLKQERQKKQREQAEKNVQILEQV-NH2 (SMILES CC[C@H](C)[C@H](NC(C)=O)C(=O)N[C@H](C(=O)N[C@@H](CC(C)C)C(=O)N[C@@H](CO)C(=O)N[C@@H](CC(C)C)C(=O)N[C@@H](CC(=O)O)C(=O)N[C@@H](C(=O)N1CCC[C@H]1C(=O)N[C@H](C(=O)N[C@@H](CCCCN)C(=O)N[C@@H](CC(C)C)C(=O)N[C@@H](CCCCNC(=O)CC[C@H](NC(=O)CCCCCCCCCCCCCCC(=O)O)C(=O)O)C(=O)N[C@@H](CCC(N)=O)C(=O)NC(C)(C)C(=O)N[C@@H](CC(C)C)C(=O)N[C@@H](CC(C)C)C(=O)N[C@@H](CCCCN)C(=O)N[C@@H](CCC(N)=O)C(=O)N[C@@H](CCC(=O)O)C(=O)N[C@@H](CCCNC(=N)N)C(=O)N[C@@H](CCC(N)=O)C(=O)N[C@@H](CCCCN)C(=O)N[C@@H](CCCCN)C(=O)N[C@@H](CCC(N)=O)C(=O)N[C@@H](CCCNC(=N)N)C(=O)N[C@@H](CCC(=O)O)C(=O)N[C@@H](CCC(N)=O)C(=O)N[C@@H](C)C(=O)N[C@@H](CCC(=O)O)C(=O)N[C@@H](CCCCN)C(=O)N[C@@H](CC(N)=O)C(=O)N[C@H](C(=O)N[C@@H](CCC(N)=O)C(=O)N[C@H](C(=O)N[C@@H](CC(C)C)C(=O)N[C@@H](CCC(=O)O)C(=O)N[C@@H](CCC(N)=O)C(=O)N[C@H](C(N)=O)C(C)C)[C@@H](C)CC)C(C)C)[C@@H](C)CC)C(C)C)C(C)C) [SEQ ID NO 18] | 10% | 3.55 nM
Pentanoyl-VLSLD[dV]PIKLK([γGlu-C16 diacid])Q[Aib]LLKQERQKKQREQAEKNVQILEQV-NH2 (SMILES CCCCC(=O)N[C@H](C(=O)N[C@@H](CC(C)C)C(=O)N[C@@H](CO)C(=O)N[C@@H](CC(C)C)C(=O)N[C@@H](CC(=O)O)C(=O)N[C@@H](C(=O)N1CCC[C@H]1C(=O)N[C@H](C(=O)N[C@@H](CCCCN)C(=O)N[C@@H](CC(C)C)C(=O)N[C@@H](CCCCNC(=O)CC[C@H](NC(=O)CCCCCCCCCCCCCCC(=O)O)C(=O)O)C(=O)N[C@@H](CCC(N)=O)C(=O)NC(C)(C)C(=O)N[C@@H](CC(C)C)C(=O)N[C@@H](CC(C)C)C(=O)N[C@@H](CCCCN)C(=O)N[C@@H](CCC(N)=O)C(=O)N[C@@H](CCC(=O)O)C(=O)N[C@@H](CCCNC(=N)N)C(=O)N[C@@H](CCC(N)=O)C(=O)N[C@@H](CCCCN)C(=O)N[C@@H](CCCCN)C(=O)N[C@@H](CCC(N)=O)C(=O)N[C@@H](CCCNC(=N)N)C(=O)N[C@@H](CCC(=O)O)C(=O)N[C@@H](CCC(N)=O)C(=O)N[C@@H](C)C(=O)N[C@@H](CCC(=O)O)C(=O)N[C@@H](CCCCN)C(=O)N[C@@H](CC(N)=O)C(=O)N[C@H](C(=O)N[C@@H](CCC(N)=O)C(=O)N[C@H](C(=O)N[C@@H](CC(C)C)C(=O)N[C@@H](CCC(=O)O)C(=O)N[C@@H](CCC(N)=O)C(=O)N[C@H](C(N)=O)C(C)C)[C@@H](C)CC)C(C)C)[C@@H](C)CC)C(C)C)C(C)C) [SEQ ID NO 22] | 3% | 4.44 nM
Butyryl-VLSLD[dV]PIKLK([γGlu-C16 diacid])KILLEQEKQKKQREQAETNKQILAQV-NH2 (SMILES CCCC(=O)N[C@H](C(=O)N[C@@H](CC(C)C)C(=O)N[C@@H](CO)C(=O)N[C@@H](CC(C)C)C(=O)N[C@@H](CC(=O)O)C(=O)N[C@@H](C(=O)N1CCC[C@H]1C(=O)N[C@H](C(=O)N[C@@H](CCCCN)C(=O)N[C@@H](CC(C)C)C(=O)N[C@@H](CCCCNC(=O)CC[C@H](NC(=O)CCCCCCCCCCCCCCC(=O)O)C(=O)O)C(=O)N[C@@H](CCCCN)C(=O)N[C@H](C(=O)N[C@@H](CC(C)C)C(=O)N[C@@H](CC(C)C)C(=O)N[C@@H](CCC(=O)O)C(=O)N[C@@H](CCC(N)=O)C(=O)N[C@@H](CCC(=O)O)C(=O)N[C@@H](CCCCN)C(=O)N[C@@H](CCC(N)=O)C(=O)N[C@@H](CCCCN)C(=O)N[C@@H](CCCCN)C(=O)N[C@@H](CCC(N)=O)C(=O)N[C@@H](CCCNC(=N)N)C(=O)N[C@@H](CCC(=O)O)C(=O)N[C@@H](CCC(N)=O)C(=O)N[C@@H](C)C(=O)N[C@@H](CCC(=O)O)C(=O)N[C@H](C(=O)N[C@@H](CC(N)=O)C(=O)N[C@@H](CCCCN)C(=O)N[C@@H](CCC(N)=O)C(=O)N[C@H](C(=O)N[C@@H](CC(C)C)C(=O)N[C@@H](C)C(=O)N[C@@H](CCC(N)=O)C(=O)N[C@H](C(N)=O)C(C)C)[C@@H](C)CC)[C@@H](C)O)[C@@H](C)CC)[C@@H](C)CC)C(C)C)C(C)C) [SEQ ID NO 36] | 22% | 0.14 nM
Ac-IVLSLD[dV]PIKLK([AEEA-AEEA-γGlu-C18 diacid])KILLEQEKQKKQREQAETNVQILAQV-NH2 (SMILES CC[C@H](C)[C@H](NC(C)=O)C(=O)N[C@H](C(=O)N[C@@H](CC(C)C)C(=O)N[C@@H](CO)C(=O)N[C@@H](CC(C)C)C(=O)N[C@@H](CC(=O)O)C(=O)N[C@@H](C(=O)N1CCC[C@H]1C(=O)N[C@H](C(=O)N[C@@H](CCCCN)C(=O)N[C@@H](CC(C)C)C(=O)N[C@@H](CCCCNC(=O)COCCOCCNC(=O)COCCOCCNC(=O)CC[C@H](NC(=O)CCCCCCCCCCCCCCCCC(=O)O)C(=O)O)C(=O)N[C@@H](CCCCN)C(=O)N[C@H](C(=O)N[C@@H](CC(C)C)C(=O)N[C@@H](CC(C)C)C(=O)N[C@@H](CCC(=O)O)C(=O)N[C@@H](CCC(N)=O)C(=O)N[C@@H](CCC(=O)O)C(=O)N[C@@H](CCCCN)C(=O)N[C@@H](CCC(N)=O)C(=O)N[C@@H](CCCCN)C(=O)N[C@@H](CCCCN)C(=O)N[C@@H](CCC(N)=O)C(=O)N[C@@H](CCCNC(=N)N)C(=O)N[C@@H](CCC(=O)O)C(=O)N[C@@H](CCC(N)=O)C(=O)N[C@@H](C)C(=O)N[C@@H](CCC(=O)O)C(=O)N[C@H](C(=O)N[C@@H](CC(N)=O)C(=O)N[C@H](C(=O)N[C@@H](CCC(N)=O)C(=O)N[C@H](C(=O)N[C@@H](CC(C)C)C(=O)N[C@@H](C)C(=O)N[C@@H](CCC(N)=O)C(=O)N[C@H](C(N)=O)C(C)C)[C@@H](C)CC)C(C)C)[C@@H](C)O)[C@@H](C)CC)[C@@H](C)CC)C(C)C)C(C)C) [SEQ ID NO 103] | 3% | 3.09 nM
Propionyl-VLSLD[dV]PIKLK([γGlu-C16 diacid])KILLEQEKQKKQREQAETNKQILAQV-NH2 (SMILES CCC(=O)N[C@H](C(=O)N[C@@H](CC(C)C)C(=O)N[C@@H](CO)C(=O)N[C@@H](CC(C)C)C(=O)N[C@@H](CC(=O)O)C(=O)N[C@@H](C(=O)N1CCC[C@H]1C(=O)N[C@H](C(=O)N[C@@H](CCCCN)C(=O)N[C@@H](CC(C)C)C(=O)N[C@@H](CCCCNC(=O)CC[C@H](NC(=O)CCCCCCCCCCCCCCC(=O)O)C(=O)O)C(=O)N[C@@H](CCCCN)C(=O)N[C@H](C(=O)N[C@@H](CC(C)C)C(=O)N[C@@H](CC(C)C)C(=O)N[C@@H](CCC(=O)O)C(=O)N[C@@H](CCC(N)=O)C(=O)N[C@@H](CCC(=O)O)C(=O)N[C@@H](CCCCN)C(=O)N[C@@H](CCC(N)=O)C(=O)N[C@@H](CCCCN)C(=O)N[C@@H](CCCCN)C(=O)N[C@@H](CCC(N)=O)C(=O)N[C@@H](CCCNC(=N)N)C(=O)N[C@@H](CCC(=O)O)C(=O)N[C@@H](CCC(N)=O)C(=O)N[C@@H](C)C(=O)N[C@@H](CCC(=O)O)C(=O)N[C@H](C(=O)N[C@@H](CC(N)=O)C(=O)N[C@@H](CCCCN)C(=O)N[C@@H](CCC(N)=O)C(=O)N[C@H](C(=O)N[C@@H](CC(C)C)C(=O)N[C@@H](C)C(=O)N[C@@H](CCC(N)=O)C(=O)N[C@H](C(N)=O)C(C)C)[C@@H](C)CC)[C@@H](C)O)[C@@H](C)CC)[C@@H](C)CC)C(C)C)C(C)C) [SEQ ID NO 35] | 13% | 0.23 nM
